The results in this text go back to article PMC4157451 (Acta Crystallographica Section D: Biological Crystallography, 2014).

Numbering of substitutions follows the chain as printed. Numbers in names are those of the source.

This series concerns the molecule itself. The experiment in a line: not stated; assembly of the purified point mutants in solution (Supplementary Fig. S3).

B1: PvuRts1I Y210F mutant (enzyme, UniProt Q52612 1-293, looked up)
chain: MSKTDYILRALSKISHKRWEHYIINRVVHTLDDPDIEFVCQQCIRKEGHLGKIYLADLLFPQLNLYLEIDEAHHDSNDARKADAVRRLDIVEATGFQEERIPASNITLSEVNKLVDEFVRLVKDKKEELENQGLFFRWDYDERYSAKKHINTGYMAVGPNSVFRYHRDALQCFGYRREGHHQSGGWALPAEVAQSIGLTGRVMVWFPRLFEAGEWKNALSADGNKITEQSLNATRNYQETWDYRIVMAHSRDELNRTLYRFLGVFAIDVDKSSDEVKVFSRVYSRVNVYRSQN
notes: PvuRts1I with a point mutation; also called Y210F variant; source: E. coli Rosetta2 (DE3), purified under identical conditions to wild-type PvuRts1I
As usually defined, the stoichiometry N is a count of units in the complex or per binding partner. For the protein B1, the “stoichiometry N” value came out at 2.

B2: PvuRts1I N217D mutant (enzyme, UniProt Q52612 1-293, looked up)
chain: B1 chain with F210Y, N217D
notes: PvuRts1I with a point mutation; source: E. coli Rosetta2 (DE3), purified under identical conditions to wild-type PvuRts1I
Turning to B2, the “stoichiometry N” value is 2.

B3: PvuRts1I N217A mutant (enzyme, UniProt Q52612 1-293, looked up)
chain: B1 chain with F210Y, N217A
notes: as for B2
For the protein B3, the “stoichiometry N” value came out at 2.

B4: PvuRts1I W215A mutant (enzyme, UniProt Q52612 1-293, looked up)
chain: B1 chain with F210Y, W215A
notes: as for B2
On to B4, for which the “stoichiometry N” value was found to be 2.

B5: PvuRts1I E228K mutant (enzyme, UniProt Q52612 1-293, looked up)
chain: B1 chain with F210Y, E228K
notes: as for B2
Consider B5, for which the “stoichiometry N” value was 2.

B6: PvuRts1I N217K mutant (enzyme, UniProt Q52612 1-293, looked up)
chain: B1 chain with F210Y, N217K
notes: as for B2
For B6, the “stoichiometry N” value turned out to be 2.

B7: PvuRts1I A212N mutant (enzyme, UniProt Q52612 1-293, looked up)
chain: B1 chain with F210Y, A212N
notes: as for B2
On to B7, for which the “stoichiometry N” value turned out to be 2.
